Laboratory results as given in patent publication US20260132208A1 (DOMAIN THERAPEUTICS, published 2026).
Where “and” joins values, the source holds several entries; their conditions need not be identical. Equal values may be shown once.

B1: anti-CCR8 mAb 1-25 (antibody, human IgG1, kappa, V domains shown)
VH: QVQLVESGGGVVQPGRSLRLSCAASGFTFSNYRMHWVRQAPGKGLEWIAVIKVKSDNYGANYADSVKGRFTISRDNSKNTLYLQMNSLRAEDTAVYYCSSPTYPGSSGFAYWGQGTLVTVSS
VL: DIQMTQSPSSLSASVGDRVTITCRASQDISNYLNWYQQKPDGTVKLLIYYTSRLHTGVPSRFSGSGSGTDYTLTISNLQQEDIATYFCQQGNKFPPTFGGGTKVEINR
notes: Humanized mAb, human IgG1 / kappa
B2: anti-CCR8 mAb 1-20 (antibody, human IgG1, kappa)
heavy: not shown
light: DIVMTQAAPSLSVTPGESASISCTSSKSLLHSNGNTYLYWFLQKPGQSPQLLIYRMSNLASGVPDRFSGSGSGTAFTLKISRVEAEDVGVYYCMQHREYPFTFGSGTKLEIKRTVAAPSVFIFPPSDEQLKSGTASVVCLLNNFYPREAKVQWKVDNALQSGNSQESVTEQDSKDSTYSLSSTLTLSKADYEKHKVYACEVTHQGLSSPVTKSFNRGEC
notes: as for B1
B3: anti-CCR8 mAb 1-22 (antibody, human IgG1, kappa, V domains shown)
VH: EVQLLESGGGLVQPGGSLRLSCAASGFTFNAYAMNWVRQAPGKGLEWVARIRSKSNDYATYYGDSVKGRFTISRDNSKNTLYLQMNSLRAEDTAVYYCVRGREAYYRYDGGYYAMDVWGQGTTVTVSS
VL: DIVMTQSPLSLPVTPGEPASISCRSSKSLLHSNGNTYLYWFLQKPGQSPQLLIYRVSNLASGVPDRFSGSGSGTDFTLKISRVEAEDVGVYYCMQHREYPFTFGQGTKLEIKR
notes: as for B1

Assays:
[1] = target: T1, human CCR8 (human, UniProt P51685 1-355); experiment: cell-based or functional assay
[2] = target: T1, human CCR8; experiment: flow cytometry, HUT78 cells (endogenous CCR8)
Method: (§1) In human activated T cells model, prior to mAb incubation, cells were first incubated with 200 nM of hCCL1 (R&D Systems, Minneapolis, MN, USA) or buffer PBS (Invitrogen by Thermofisher Scientific, Illkirch-Graffenstaden, France) supplemented by 2% Fetal Bovine Serum (Invitrogen by Thermofisher Scientific, Illkirch-Graffenstaden, France) and 2 mM EDTA (Invitrogen by Thermofisher Scientific, Illkirch-Graffenstaden, France) during 1 hour at 4° C. To determine EC50 value, 8 concentrations of anti-CCR8 mAb were tested. Unbound antibodies were washed away with PBS (Invitrogen by Thermofisher Scientific, Illkirch-Graffenstaden, France) supplemented by 2% Fetal Bovine Serum (Invitrogen by Thermofisher Scientific, Illkirch-Graffenstaden, France) and 2 mM EDTA (Invitrogen by Thermofisher Scientific, Illkirch-Graffenstaden, France). Subsequently, cells are centrifuged (5 min at 400 g) and bound antibody is detected with F(ab′)2-Goat anti-Mouse IgG (H+L) Cross-Adsorbed Secondary Antibody, Alexa Fluor 488 (dilution 1/500) (Invitrogen by Thermofisher Scientific, Illkirch-Graffenstaden, France) or with F(ab′)₂-Goat anti-Human IgG Fc Secondary Antibody, PE (Invitrogen by Thermofisher Scientific, Illkirch-Graffenstaden, France) (dilution 1/1000) at 4° C. for 30 min. Detection reagent is washed away and cells are centrifuged (5 min at 400 g) and resuspended in 30 μL PBS. Bound detection antibody is quantified on a MacsQuant16 (Miltenyi, Gladbach, Germany) (B1 or B2 channel, 5000 events per acquisition). During the experiment, the respective isotype mAb controls (mouse IgG1, mouse IgG2a, mouse IgG2b, mouse IgG3 or human IgG1) (Biolegend, Amsterdam, The Netherlands) are included to exclude any unspecific binding events. EC50 values were determined via nonlinear fit “log (agonist) vs.response—Variable slope (four parameters)” function of Graphpad prism. EC50 values were not constantly determined in the same experiments.
Anti-CCR8 mAb cellular reactivity was also evaluated on native human CCR8 from HUT78 cell line by flow cytometry. In Table 4.3, Mean Fluorescence Intensity (Fold change to isotype control), the percentage of labelled cells and EC50 in nM of some anti-CCR8 antibodies are presented.

[3] = target: T1, human CCR8; experiment: flow cytometry, human activated T cells (endogenous CCR8)
Method: as §1
Binding characteristics of anti-CCR8 mAb cellular reactivity was further investigated by testing their binding to activated T cells.

[4] = target: T1, human CCR8; experiment: flow cytometry, human activated T cells pre-saturated with 200 nM hCCL1
Method: Unbound antibodies were washed away with PBS (Invitrogen by Thermofisher Scientific, Illkirch-Graffenstaden, France) supplemented by 2% Fetal Bovine Serum (Invitrogen by Thermofisher Scientific, Illkirch-Graffenstaden, France) and 2 mM EDTA (Invitrogen by Thermofisher Scientific, Illkirch-Graffenstaden, France). Subsequently, cells are centrifuged (5 min at 400 g) and bound antibody is detected with F(ab′)2-Goat anti-Mouse IgG (H+L) Cross-Adsorbed Secondary Antibody, Alexa Fluor 488 (dilution 1/500) (Invitrogen by Thermofisher Scientific, Illkirch-Graffenstaden, France) or with F(ab′)₂-Goat anti-Human IgG Fc Secondary Antibody, PE (Invitrogen by Thermofisher Scientific, Illkirch-Graffenstaden, France) (dilution 1/1000) at 4° C. for 30 min. Detection reagent is washed away and cells are centrifuged (5 min at 400 g) and resuspended in 30 μL PBS. Bound detection antibody is quantified on a MacsQuant16 (Miltenyi, Gladbach, Germany) (B1 or B2 channel, 5000 events per acquisition). During the experiment, the respective isotype mAb controls (mouse IgG1, mouse IgG2a, mouse IgG2b, mouse IgG3 or human IgG1) (Biolegend, Amsterdam, The Netherlands) are included to exclude any unspecific binding events. EC50 values were determined via nonlinear fit “log (agonist) vs.response—Variable slope (four parameters)” function of Graphpad prism. EC50 values were not constantly determined in the same experiments.
Binding characteristics of anti-CCR8 mAb cellular reactivity was further investigated by testing their binding to activated T cells. […] For some anti-CCR8 antibodies, their binding on hCCR8 from human activated T cells was tested after a pre-saturation with 200 nM of hCCL1.

[5] = target: T2, human CCR8 with a SNAP-tag at the N-terminus (human, UniProt P51685 1-355, SNAP-tag labelled covalently with Lumi4-Terbium); experiment: HTRF Tag-lite, inhibition of hCCL1-AF647 binding to SNAP-hCCR8 on HEK-293 cells
T2 construct: also called hCCR8 SNAP-tag; CCR8 SNAP-tag

[6] = target: T1, human CCR8; experiment: cell-based or functional assay; remark: listed apart in the source

Binder	IC50 of CCL1-induced hCCR8 Gi2 signaling (BRET, HEK-293) [1]	% of labelled cells [2] [%]	% of labelled cells [3] [%]	% of labelled cells [4] [%]	IC50 [5] [µg/mL]	Ki [5]	residual hCCL1 (100 nM) Gi2 response, protocol #2, mAb 0.08 µg/mL [6] [%]	residual hCCL1 (100 nM) Gi2 response, protocol #2, mAb 0.4 µg/mL [6] [%]	residual hCCL1 (100 nM) Gi2 response, protocol #2, mAb 10 µg/mL [6] [%]	residual hCCL1 (100 nM) Gi2 response, protocol #3, mAb 0.05 µg/mL [6] [%]	residual hCCL1 (100 nM) Gi2 response, protocol #3, mAb 0.5 µg/mL [6] [%]	residual hCCL1 (100 nM) Gi2 response, protocol #3, mAb 5 µg/mL [6] [%]
B1	0.02 µg/mL and 0.134 nM	93	63	54	0.02	0.01 µg/mL and 0.07 nM						
B2	0.029 µg/mL and 0.194 nM	23	79	64	0.09	0.05 µg/mL	62	38	30	94	63	39
B3	0.068 µg/mL and 0.452 nM	97	92	92	0.15	0.08 µg/mL and 0.5 nM	94	77	31	110	76	33
